Results published in publication PMC11643744, “New Conjugates of Vancomycin with Cell-Penetrating Peptides—Synthesis, Antimicrobial Activity, Cytotoxicity, and BBB Permeability Studies” (Molecules, 2024).

Tests used:
[1] = system: normal human fibroblasts, BJ line (CRL-2522); assay: Neutral red cytotoxicity assay
Method: Normal human fibroblasts, BJ line (CRL-2522™), Eagle’s Minimum Essential Medium (EMEM), and fetal bovine serum (FBS) were obtained from ATCC (Manassas, VA, USA). Cells were grown following ATCC guidelines in an EMEM medium supplemented with 10% FBS at 37 °C in a humidified atmosphere of 95% air and 5% CO2 in a HeraCell 150 incubator (Heraeus, Hanau, Germany).
The assay was performed as per previously published protocols with slight modifications. In brief, BJ cells were plated in 96-well tissue culture plates (Nest Scientific Biotechnology, Wuxi, China) at a density of 6 × 10^3 cells per well and allowed to attach for 24 h in EMEM supplemented with 10% FBS. After the incubation period, the medium was removed, and 10% dimethyl sulfoxide (DMSO)-treated cells (Sigma-Aldrich, St. Louis, MO, USA) were used as a positive control, while nontreated cells served as a negative control.
The cells were treated with peptides suspended in EMEM medium supplemented with 10% FBS and incubated for 24 h at 37 °C in a humidified atmosphere of 95% air and 5% CO2. After the incubation, the supernatants were discarded and replaced with 100 µL of non-supplemented EMEM containing 0.33% neutral red (Sigma-Aldrich) diluted 1:40. The cells were incubated for an additional 2 h at 37 °C. Following incubation, the neutral red medium was removed, and the cells were washed with 100 µL of phosphate-buffered saline (PBS) per well.
To extract the dye into the solution, the cells were treated with 150 µL of a solution containing 50% ethanol (Alchem, Torun, Poland), 49% distilled H2O, and 1% acetic acid (Alchem, Torun, Poland) and incubated under shaking at 37 °C for 10 min. Absorbance was measured at 540 nm using a Synergy H1 plate reader (BioTek Instruments, Winooski, VT, USA). The assay was performed in triplicate to ensure reproducibility.

PAMPA-BBB assay = settings: 20 h incubation; for R, mass retention: mean ± SEM; for Papp at 20 h, 20 µM: pig, PAMPA, pH 7.4, Pe, effective permeability coefficient, pH 7.4, mean ± SEM
Excerpt: This assay utilized a 96-well plate assembly consisting of a filter plate pre-coated with polar brain lipids (donor plate) and a receiver plate (acceptor plate). The phospholipid mixture used to coat the membrane was extracted from porcine polar brain lipids, with the following composition: 12.6% phosphatidylcholine, 33.1% phosphatidylethanolamine, 18.5% phosphatidylserine, 4.1% phosphatidylinositol, 0.8% phosphatidic acid, and 30.9% of other compounds, including cerebrosides, sulfatides, and pigments.
In each well of the donor filtration plate (Multiscreen Filter Plate, PVDF with a pore size of 0.45 µm), 5 µL of the phospholipid mixture in n-dodecane (20 mg/mL) was carefully applied to form the artificial membrane. After coating, 200 µL of phosphate-buffered saline (PBS at pH 7.4) containing 5% dimethyl sulfoxide (DMSO) as a co-solvent, and the test compound (at a concentration of 20 µM) was added to each well of the donor plate (in triplicate). […] The plate lid was then replaced and the resulting assembled donor–acceptor plates were incubated at room temperature for 20 h. After this time, the donor plate was removed and solutions from each well of both acceptor and donor plates were collected for further analysis. The concentrations of the tested compounds were determined by LC-MS. The analysis was conducted by UHPLC-MS system (Shimadzu Nexera X2 with LCMS-2020 detector) using a ReproSil Pure 120 ODS-3 column (Dr. Maisch GmbH, 100 × 2 mm, 2.4 µm particle size) with several gradients of ACN with 0.1% FA and 0.05% TFA at a flow rate of 0.3 mL/min. The eluted solution was monitored by an ESI-MS detector operated in a selected ion monitoring mode (SIM). […] CE=CD×VD+CA×VA/VD+VA

C[S+](C)[O-] [DMSO, dimethyl sulfoxide, reference compound]
cell viability [1]: approximately 21%

CC[C@H](C)[C@H](NC(=O)[C@H](CCCCN)NC(=O)[C@H](CCCCN)NC(=O)[C@H](C)NC(=O)[C@H](CC(C)C)NC(=O)[C@H](C)NC(=O)[C@H](C)NC(=O)[C@H](CC(C)C)NC(=O)[C@H](C)NC(=O)[C@H](CCCCN)NC(=O)[C@H](CC(C)C)NC(=O)[C@H](CC(N)=O)NC(=O)[C@@H](NC(=O)[C@H](CCCCN)NC(=O)CNC(=O)[C@H](CC(C)C)NC(=O)[C@H](CC(C)C)NC(=O)[C@H](Cc1ccc(O)cc1)NC(=O)CNC(=O)[C@H](C)NC(=O)c1cn(CCOCCOCCOCCNC(=O)[C@H]2NC(=O)[C@H]3NC(=O)[C@H](NC(=O)[C@@H]4NC(=O)[C@H](CC(N)=O)NC(=O)[C@H](NC(=O)[C@@H](CC(C)C)NC)[C@H](O)c5ccc(c(Cl)c5)Oc5cc4cc(c5O[C@@H]4O[C@H](CO)[C@@H](O)[C@H](O)[C@H]4O[C@H]4C[C@](C)(N)[C@H](O)[C@H](C)O4)Oc4ccc(cc4Cl)[C@H]3O)c3ccc(O)c(c3)-c3c(O)cc(O)cc32)nn1)[C@@H](C)CC)C(=O)N[C@@H](CC(C)C)C(N)=O [compound 2]
concentration above which cytotoxicity was shown ([1]; 24 h): above 64 µg/mL
R, mass retention (PAMPA-BBB assay): 10.0 ± 0.6%
Papp at 20 h, 20 µM (PAMPA-BBB assay): 1.87 nm/s

CN[C@H](CC(C)C)C(=O)N[C@H]1C(=O)N[C@@H](CC(N)=O)C(=O)N[C@H]2C(=O)N[C@H]3C(=O)N[C@H](C(=O)N[C@H](C(=O)NCCOCCOCCOCCn4cc(C(=O)N[C@@H](Cc5ccc(O)cc5)C(=O)N[C@@H](C)C(=O)N[C@@H](CCCNC(=N)N)C(=O)N[C@@H](C)C(=O)N[C@@H](C)C(=O)N[C@@H](C)C(=O)N[C@@H](CCCNC(=N)N)C(=O)N[C@@H](CCC(N)=O)C(=O)N[C@@H](C)C(=O)N[C@@H](CCCNC(=N)N)C(=O)N[C@@H](C)C(N)=O)nn4)c4cc(O)cc(O)c4-c4cc3ccc4O)[C@H](O)c3ccc(c(Cl)c3)Oc3cc2cc(c3O[C@@H]2O[C@H](CO)[C@@H](O)[C@H](O)[C@H]2O[C@H]2C[C@](C)(N)[C@H](O)[C@H](C)O2)Oc2ccc(cc2Cl)[C@H]1O [compound 10]
concentration above which cytotoxicity was shown ([1]; 24 h): above 16 µg/mL
R, mass retention (PAMPA-BBB assay): 2.0 ± 0.6%
Papp at 20 h, 20 µM (PAMPA-BBB assay): 0.1 ± 0.03 nm/s

CN[C@H](CC(C)C)C(=O)N[C@H]1C(=O)N[C@@H](CC(N)=O)C(=O)N[C@H]2C(=O)N[C@H]3C(=O)N[C@H](C(=O)N[C@H](C(=O)O)c4cc(O)cc(O)c4-c4cc3ccc4O)[C@H](O)c3ccc(c(Cl)c3)Oc3cc2cc(c3O[C@@H]2O[C@H](CO)[C@@H](O)[C@H](O)[C@H]2O[C@H]2C[C@](C)(NC(=O)CCOCCOCCOCCOCCn3cc(C(=O)N[C@@H](Cc4ccc(O)cc4)C(=O)N[C@@H](C)C(=O)N[C@@H](CCCNC(=N)N)C(=O)N[C@@H](C)C(=O)N[C@@H](C)C(=O)N[C@@H](C)C(=O)N[C@@H](CCCNC(=N)N)C(=O)N[C@@H](CCC(N)=O)C(=O)N[C@@H](C)C(=O)N[C@@H](CCCNC(=N)N)C(=O)N[C@@H](C)C(N)=O)nn3)[C@H](O)[C@H](C)O2)Oc2ccc(cc2Cl)[C@H]1O [compound 11]
concentration above which cytotoxicity was shown ([1]; 24 h): > 64 µg/mL
R, mass retention (PAMPA-BBB assay): 32.7 ± 0.9%
Papp at 20 h, 20 µM (PAMPA-BBB assay): 0.66 ± 0.07 nm/s

CN[C@H](CC(C)C)C(=O)N[C@H]1C(=O)N[C@@H](CC(N)=O)C(=O)N[C@H]2C(=O)N[C@H]3C(=O)N[C@H](C(=O)N[C@H](C(=O)NCCSSCCn4cc(C(=O)N[C@@H](Cc5ccc(O)cc5)C(=O)N[C@@H](C)C(=O)N[C@@H](CCCNC(=N)N)C(=O)N[C@@H](C)C(=O)N[C@@H](C)C(=O)N[C@@H](C)C(=O)N[C@@H](CCCNC(=N)N)C(=O)N[C@@H](CCC(N)=O)C(=O)N[C@@H](C)C(=O)N[C@@H](CCCNC(=N)N)C(=O)N[C@@H](C)C(N)=O)nn4)c4cc(O)cc(O)c4-c4cc3ccc4O)[C@H](O)c3ccc(c(Cl)c3)Oc3cc2cc(c3O[C@@H]2O[C@H](CO)[C@@H](O)[C@H](O)[C@H]2O[C@H]2C[C@](C)(N)[C@H](O)[C@H](C)O2)Oc2ccc(cc2Cl)[C@H]1O [compound 12]
effect on cell viability ([1]; across the tested concentration range, 24 h): did not significantly affect cell viability
R, mass retention (PAMPA-BBB assay): 12.7 ± 2.2%
Papp at 20 h, 20 µM (PAMPA-BBB assay): 0.36 ± 0.04 nm/s

CN[C@H](CC(C)C)C(=O)N[C@H]1C(=O)N[C@@H](CC(N)=O)C(=O)N[C@H]2C(=O)N[C@H]3C(=O)N[C@H](C(=O)N[C@H](C(=O)NCCOCCOCCOCCn4cc(C(=O)N[C@@H](CCCNC(=N)N)C(=O)N[C@@H](CCCNC(=N)N)C(=O)N[C@@H](CCCNC(=N)N)C(=O)N[C@@H](CCCNC(=N)N)C(=O)N[C@@H](CCCNC(=N)N)C(=O)N[C@@H](CCCNC(=N)N)C(=O)N[C@@H](CCCNC(=N)N)C(=O)N[C@@H](CCCNC(=N)N)C(=O)N[C@@H](CCCNC(=N)N)C(N)=O)nn4)c4cc(O)cc(O)c4-c4cc3ccc4O)[C@H](O)c3ccc(c(Cl)c3)Oc3cc2cc(c3O[C@@H]2O[C@H](CO)[C@@H](O)[C@H](O)[C@H]2O[C@H]2C[C@](C)(N)[C@H](O)[C@H](C)O2)Oc2ccc(cc2Cl)[C@H]1O [compound 15]
R, mass retention (PAMPA-BBB assay): 2.7 ± 0.9%

CN[C@H](CC(C)C)C(=O)N[C@H]1C(=O)N[C@@H](CC(N)=O)C(=O)N[C@H]2C(=O)N[C@H]3C(=O)N[C@H](C(=O)N[C@H](C(=O)O)c4cc(O)cc(O)c4-c4cc3ccc4O)[C@H](O)c3ccc(c(Cl)c3)Oc3cc2cc(c3O[C@@H]2O[C@H](CO)[C@@H](O)[C@H](O)[C@H]2O[C@H]2C[C@](C)(NC(=O)CCOCCOCCOCCOCCn3cc(C(=O)N[C@@H](CCCNC(=N)N)C(=O)N[C@@H](CCCNC(=N)N)C(=O)N[C@@H](CCCNC(=N)N)C(=O)N[C@@H](CCCNC(=N)N)C(=O)N[C@@H](CCCNC(=N)N)C(=O)N[C@@H](CCCNC(=N)N)C(=O)N[C@@H](CCCNC(=N)N)C(=O)N[C@@H](CCCNC(=N)N)C(=O)N[C@@H](CCCNC(=N)N)C(N)=O)nn3)[C@H](O)[C@H](C)O2)Oc2ccc(cc2Cl)[C@H]1O [compound 16]
R, mass retention (PAMPA-BBB assay): 37.3 ± 4.8%
